{"source": "paper PMC8229956", "key": {"[1]": {"target": "Oryza sativa TIR1 wild type with nuclear localisation signal (OsTIR1^WT-NLS) (Oryza sativa)"}, "[2]": {"target": "Oryza sativa TIR1 wild type with nuclear localisation signal (OsTIR1^WT-NLS) (Oryza sativa)", "remark": "listed apart in the source"}}, "data": [{"substance": "Mcm4-AID-V5 (from UniProt P93830 1-229)", "values": [{"measurement": "reduction in Mcm4-AID-V5 protein level (anti-V5 immunoblot of total extract, normalised to tubulin) in cells expressing OsTIR1^WT in the absence of NAA, against cells with no OsTIR1", "setting": "[1]", "value": 14, "unit": "%"}]}, {"substance": "Rad52-AID-V5 (from UniProt P93830 1-229)", "values": [{"measurement": "reduction in Rad52-AID-V5 protein level (anti-V5 immunoblot of total extract, normalised to tubulin) in cells expressing OsTIR1^WT in the absence of NAA, against rad52-AID-V5 cells with no OsTIR1", "setting": "[2]", "value": 14, "unit": "%"}]}]}
